This is an account of results in patent US20040002450A1, “Y17 - isolated molecules comprising epitopes containing sulfated moieties, antibodies to such epitopes, and uses thereof” (priority 2000, published 2004).

One experiment concerns Jurkat cells. The experiment in a line: FACS binding to Jurkat cells. Particulars: 1 μg scFv-Y1 versus 5 ng IgG-Y1; two-step staining. Further details: species or system human. An excerpt:
The present invention is directed to Y1 and Y17 multimers prepared by any known method in the art. A preferred method of forming multimers, and especially dimers, employs the use of cysteine residues to form disulfide bonds between two monomers. In this embodiment, dimers are formed by adding a cysteine on the carboxyl terminus of the scFvs (referred to as Y1-cys scFv or Y1 dimer) in order to facilitate dimer formation. After the DNA construct was made (See Example 2D and 6D) and used for transfection, Y1 dimers were expressed in a production vector and refolded in vitro. The protein was analyzed by SDS-PAGE, HPLC, and FACS. […] Two peaks were detected by SDS-PAGE (non-reduced) and by gel filtration. The peaks were collected separately and analyzed by FACS. […] Conditions for dimer refolding were determined, and material comprising >90% dimers (mg quantities) was produced after subsequent dialysis, chromatographic, and gel filtration steps. […]
FACS analysis was performed on Jurkat cells using a “three step staining procedure.” First, crude extracts or purified unlabeled scFv are stained, then mouse anti-myc antibodies, and finally, FITC— or PE-conjugated anti-mouse antibodies. […] After the final staining step, cells were fixed by re-suspending in PBS, 1% BSA, 2% formaldehyde, and then read by FACS (Becton-Dickinson).
(In general: In flow cytometry, cells or beads pass a laser one at a time.)

In experiment [1] the test system is platelets, KG-1, Raji and T2 cells. The experiment can be described thus: FACS binding profile on platelets and human cell lines.
The subject of another experiment is KG-1 cells. The experiment in a line: FACS and binding competition on KG-1 cells (Y1 forms and multimers). Further details: species or system human. Conditions: 5 μg and 10 μg. From the text: To compare the binding of the scFv monomer (also referred to as CONY1) with the Y1 dimer, binding competition experiments were done in vitro on KG-1 cells. In addition, these experiments also compared the binding of the full Y1 IgG to the scFv Y1 monomers. To perform this study, a Y1 IgG was labeled with biotin.
In a preferred method, tetramers are formed via a biotin/streptavidin association. A novel fermentation construct that is capable of being enzymatically labeled with biotin (referred to herein as Y1-biotag or Y1-B) was created. A sequence that is a substrate for the BirA enzyme was added at the Y1C-terminus. The BirA enzyme adds a biotin to the lysine residue within the sequence. Y1-biotag was expressed in E. coli. The inclusion body material was isolated and refolded. The purity of the folded protein was >95%, and >100 mg were obtained from a 1-L culture (small-scale, non-optimized conditions). […] Nevertheless, this construct offered the advantage of specific biotinylation in which the binding site of the molecule remains intact. Further, each molecule is labeled by only one biotin—each molecule receives one biotin on the carboxyl end.
Limiting labeling to one biotin/molecule in a desired location enabled production of tetramers with streptavidin. The tetramers were formed by incubating Y1-B with steptavidin-PE. […]

Experiment [2] has as its target T1, platelet GPIbα (Homo sapiens, UniProt P07359).
T1 construct: endogenous in cells; host or cells: washed human platelets (blood-bank platelet concentrate)
The experiment can be described thus: Western blot/FACS of endoprotease-cleaved platelet GPIbα and glycocalicin. Type of experiment: binding. From the text: (§1) Immunoblotting and endoprotease cleavage techniques were used to identify the epitope for Y1 on the surface membrane of platelets.
(§2) The enzyme O-Sialoglycoprotein endoprotease from Pasteurella haemolytica (Cedarlan CLE 100) selectively cleaves human platelet GPIb and specifically cleaves only proteins containing sialylated, O-linked glycans. […] This enzyme has been reported to cleave GPIb, which is heavily O-glycosylated, but not GPIIb-IIIa or other receptors on platelets. GPIbα was digested with O-Sialoglycoprotein endoprotease in order to further establish the binding of Y1 to the molecule.
(§3) Mocarhagin [Sigma L4515a] is a cobra venom metalloproteinase that cleaves platelet GPIbα specifically at a single site between residues glu-282 and asp-283, thereby generating two stable products: a ˜45-kDa N-terminal fragment (His1-Glu282), which is released into the supernatant, and a membrane-bound ˜95 kDa C-terminal fragment.
(§4) Cathepsin G (Sigma C4428), a neutrophil serine protease, cleaves glycocalicin at a first cleavage site between residues Leu-275 and Tyr-276 and at a second cleavage site between residues Val-296 and Lys-297. Cathepsin G treatment of glycocalicin generates two N-terminal fragments: a small N-terminal 42 kDa fragment (His1-Leu275), a large N-terminal 45 kDa N-terminal fragment (His1-Val-296), and corresponding ˜95 kDa C-terminal fragments. (FIG. 1).
(§5) For mocarhagin digestion, 10^8 washed platelets in TS buffer (0.01 M Tris, 0.15 M sodium chloride, pH 7.4) containing 1 mM calcium chloride were treated with 12 μg/ml mocarhagin (final concentration) for 1 hour at 22° C. and digestion was stopped by adding EDTA to 0.01 M.
(§6) 10^6 platelets in 0.1 M Tris buffer pH 7.4 containing 0.2% albumin and protease inhibitors (10 μM leupeptin, 0.24 mM PMSF) was incubated with 0.14 mg/ml O-Sialoglycoprotein endoprotease (final concentration) for 45 min at 37° C. and digestion was stopped by adding sample buffer and boiling. The sample buffer used contained 3% SDS, 12% glycerol, 50 mM Tris HCl, 2% β-mercaptoethanol, and 0.03% bromphenol blue.
(§7) For mocarhagin digestion, glycocalicin in TS buffer containing 1 mM calcium chloride was incubated with 10 μg/ml mocarhagin (final concentration) for 1 hour at 22° C. and digestion was stopped by adding EDTA to 0.01 M.
(§8) For cathepsin G digestion, glycocalicin in TS buffer containing 1 mM calcium chloride was incubated with 3.4 μg/ml cathepsin G (final concentration) for 4 hour at 22° C. and digestion was stopped by adding PMSF to 1 mM.
A general note: A western blot detects proteins with antibodies after separation by electrophoresis.

Experiment [3] relates to platelet GPIbα. The description is as above. In kind it is binding, human. Particulars: immunoblots and FACS.
Excerpt: as §1, §2, §3, §4, §5, §6, §7, §8

B1: Y1 scFv: fully human scFv clone binding platelets and myelogenous leukemia cells; SEQ ID NO: 25, heavy chain CDR3 SEQ ID NO: 8 (protein, listed as Homo sapiens)
scFv: MKYLLPTAAAGLLLLAAQPAMAEVQLVESGGGVVRPGGSLRLSCAASGFTFDDYGMSWVRQAPGKGLEWVSGINWNGGSTGYADSVKGRFTISRDNAKNSLYLQMNSLRAEDTAVYYCARMRAPVIWGQGTLVTVSRGGGGSGGGGSGGGGSSELTQDPAVSVALGQTVRITCQGDSLRSYYASWYQQKPGQAPVLVIYGKNNRPSGIPDRFSGSSSGNTASLTITGAQAEDEADYYCNSRDSSGNHVVFGGGTKLTVLGAAAEQKLISEEDLNGAA
As to B1, in the experiment with Jurkat cells, the “fold more molecules needed for a level of detection similar to IgG-Y1” value is listed as “approximately 10^3 fold”. For the same molecule, the “binding to Raji and T2 cells” value in experiment [1] is “do not bind”. In addition, the “competition with Y1 IgG-Biotin (50 ng)” value in the experiment with KG-1 cells is given as “partially competed”. Moreover, the “binding to cathepsin G fragments of glycocalicin” value with platelet GPIbα [2] (Western blot) was “bound to the larger N-terminal fragment (His 1-Val-296), but not to the smaller N-terminal fragment (His1-Leu275)”. Moreover, the “binding after mocarhagin treatment of washed platelets” value with platelet GPIbα [2] (Western blot of platelet lysates) is given as “binding of Y1 to the N-terminal ˜45 kDa tryptic fragment”. Besides, the “binding to washed platelets after O-Sialoglycoprotein endoprotease” value with platelet GPIbα [3] is on record as “abolishes binding”.
